The record followed here is US20250066499A1 (SUNSHINE GUOJIAN PHARMACEUTICAL SHANGHAI, published 2025).

Changes are numbered by the printed parent chain.

One assay deals with T1, CD73-ND-N187A (human, UniProt P21589 27-317).
T1 construct: Alanine mutant of CD73-ND
T1 sequence: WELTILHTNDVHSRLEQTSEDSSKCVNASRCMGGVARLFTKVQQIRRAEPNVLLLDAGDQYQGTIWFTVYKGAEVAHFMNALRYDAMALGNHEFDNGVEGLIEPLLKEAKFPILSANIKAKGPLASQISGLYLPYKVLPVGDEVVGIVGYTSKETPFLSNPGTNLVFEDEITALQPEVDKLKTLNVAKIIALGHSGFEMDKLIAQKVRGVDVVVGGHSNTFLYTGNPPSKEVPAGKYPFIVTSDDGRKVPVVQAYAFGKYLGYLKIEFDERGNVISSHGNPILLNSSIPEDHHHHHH
Briefly: ELISA, high plateau value (OD 450 nm). The method, then:
(§1) The ELISA plates were coated with SA protein diluted to 1.5 μg/mL in coating buffer (50 mM carbonate coating buffer, pH 9.6) and incubated overnight at 4° C. The supernatant was discarded, and the plates were washed three times with PBST. Then, 5% skimmed milk powder prepared with PBS was added for blocking and the plates were incubated for 2 h at 37° C. After washing the plates once with PBST, CD73-biotin protein (prepared by biotinylating CD73-His protein according to the EZ-Link NHS-Biotin Reagent instructions) was diluted to 0.5 μg/mL and added at 100 μL/well for incubation at room temperature for 1 h. The plates were washed three times with PBST, and the prepared murine-derived monoclonal antibodies against human CD73 were serially diluted with 1% BSA buffer prepared with PBST and added to the ELISA plates at 100 μl/well. The plates were incubated at 37° C. for 1 h. After washing the plates three times with PBST, HRP-labeled goat anti-mouse IgG secondary antibody was added and the plates were incubated for 30 min at 37° C. After washing the plates three times with PBST, the residual droplets were patted dry on absorbent paper as much as possible. Then, 100 μl of TMB color developing solution was added to each well, and the plates were incubated in the dark at room temperature for 5 min for color development. Subsequently, 50 μl of 2M H₂SO₄ stop solution was added to each well to terminate the substrate reaction. The OD values were read at 450 nm using a multimode microplate reader to analyze the binding ability of the tested antibodies to the target antigen human CD73-His.
(§2) Referring to the experimental method in Example 3, the affinity of 48A11-HuV33 for various mutant proteins of CD73-ND was determined. The SA protein was diluted to 1 μg/mL for coating the ELISA plates, and the biotinylated CD73 protein (CD73-biotin) was used at a concentration of 0.1 μg/mL.

The target in the next assay is T2, CD73-ND-V186A (human, UniProt P21589 27-317).
T2 construct: Alanine mutant of CD73-ND
T2 sequence: T1 sequence with V186A, A187N
Briefly: ELISA, high plateau value (OD 450 nm). The procedure: as §1, §2

The next assay addresses T3, CD73-ND-P139A (human, UniProt P21589 27-317).
T3 construct: Alanine mutant of CD73-ND
T3 sequence: T1 sequence with P139A, A187N
In words: ELISA, biotinylated antigen on streptavidin plate. The procedure: as §1, §2

The target in a further assay is T4, CD73-ND-D142A (human, UniProt P21589 27-317).
T4 construct: Alanine mutant of CD73-ND
T4 sequence: T1 sequence with D142A, A187N
Briefly: ELISA, biotinylated antigen on streptavidin plate. The procedure: as §1, §2

For another assay, the target named is T5, CD73-ND-his (human, UniProt P21589 27-317).
T5 construct: Biotinylated and captured on streptavidin in the ELISA
T5 sequence: T1 sequence with A187N
Briefly: ELISA, biotinylated antigen on streptavidin plate. The procedure: as §1, §2

The next assay concerns the target T6, CD73-ND-L184A (human, UniProt P21589 27-317).
T6 construct: Alanine mutant of CD73-ND
T6 sequence: T1 sequence with L184A, A187N
Briefly: ELISA, biotinylated antigen on streptavidin plate. The method, then:
as §1, §2

B1: 48A11-HuV33 (antibody, human IgG4, V domains shown)
VH: QVQLVQSGAEVKKPGASVKVSCKASGYTFTSYWMHWVRQAPGQGLEWIGEINPSIGRTNYNEKFKSRVTLTRDTSTSTAYMELSSLRSEDTAVYYCARRVYGTMDYWGQGTLVTVSS
VL: DIQMTQSPSSLSASVGDRVTITCKASQDINSYLSWFQQKPGKSPKLLIYRANIWVDGVPSRFSGSGSGQDYTFTISSLQPEDIATYYCLQYDELYTFGQGTKVEIK
notes: Humanized
Take B1: the Top with CD73-ND-N187A worked out at 1.77; in the assay with CD73-ND-V186A it was 1.62. Moreover, the EC50 in the assay with CD73-ND-P139A came out at 4.34 nM; with CD73-ND-D142A it was 0.344 nM; with CD73-ND-his, 0.178 nM; with CD73-ND-L184A, 0.612 nM.
